Consider two molecules from patent US20170137467A1 (CHROMOTEK, published 2017).

Residue numbers refer to the chain shown, from its start. Square brackets hold non-standard residues; d marks the D form. GABA = NCCCC(=O)O

Common to all, as to experiment: library pulldown, LC-MS of supernatant; ratio vs GFP-Nb control (0=captured, 1=not captured)
Experiment [1] addresses T1, BC2T A6P (human).
T1 construct: position 6 library (BC2TA6X), row P
T1 peptide: Ac-PDRKAPVSHWQQ-NH2
The method, boiled down: (§1)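 Unbound peptide left in supernatant after 1 h pulldown in PBS/0.01% CHAPS measured by reversed-phase LC-MS (8–30% eluent B gradient, 20 min).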

Experiment [2] addresses T2, BC2T A6S (human).
T2 construct: position 6 library (BC2TA6X), row S
T2 peptide: Ac-PDRKASVSHWQQ-NH2
The method, boiled down: as §1

Experiment [3] has as its target T3, BC2T A6T (human).
T3 construct: position 6 library (BC2TA6X), row T
T3 peptide: Ac-PDRKATVSHWQQ-NH2
In a few lines: as §1

Experiment [4] has as its target T4, BC2T A6C(Abu) (human, SMILES …).
T4 construct: position 6 library (BC2TA6X), row C(Abu) / C*
T4 peptide: Ac-PDRKA[GABA]VSHWQQ-NH2
The method, boiled down:
as §1

For experiment [5], the target named is T5, BC2T A6K (human).
T5 construct: position 6 library (BC2TA6X), row K
T5 peptide: Ac-PDRKAKVSHWQQ-NH2
In a few lines: as §1

Experiment [6] addresses T6, BC2T A6D (human).
T6 construct: position 6 library (BC2TA6X), row D
T6 peptide: Ac-PDRKADVSHWQQ-NH2
In a few lines: as §1

The target in experiment [7] is T7, BC2T V7Q (human).
T7 construct: position 7 library, row Q
T7 peptide: Ac-PDRKAAQSHWQQ-NH2
In a few lines: as §1

Experiment [8] concerns the target T8, BC2T V7D (human).
T8 construct: position 7 library, row D
T8 peptide: Ac-PDRKAADSHWQQ-NH2
The method, boiled down: as §1

Experiment [9] addresses T9, BC2T P1N (human).
T9 construct: position 1 library, row N
T9 peptide: Ac-NDRKAAVSHWQQ-NH2
The method, boiled down:
as §1

Experiment [10] addresses T10, BC2T P1C(Abu) (human, SMILES …).
T10 construct: position 1 library, row C(Abu) / C*
T10 peptide: Ac-[GABA]DRKAAVSHWQQ-NH2
The method, boiled down:
as §1

The target of experiment [11] is T11, BC2T P1D (human).
T11 construct: position 1 library, row D
T11 peptide: Ac-DDRKAAVSHWQQ-NH2
The method, boiled down: as §1

In experiment [12] the target is T12, BC2T D2N (human).
T12 construct: position 2 library, row N
T12 peptide: Ac-PNRKAAVSHWQQ-NH2
In a few lines: as §1

Experiment [13] has as its target T13, BC2T D2K (human).
T13 construct: position 2 library, row K
T13 peptide: Ac-PKRKAAVSHWQQ-NH2
In a few lines: as §1

Experiment [14] concerns the target T14, BC2T R3P (human).
T14 construct: position 3 library (BC2TR3X), row P
T14 peptide: Ac-PDPKAAVSHWQQ-NH2
In a few lines: as §1

Experiment [15] addresses T15, BC2T R3K (human).
T15 construct: position 3 library (BC2TR3X), row K
T15 peptide: Ac-PDKKAAVSHWQQ-NH2
The method, boiled down:
as §1

Experiment [16] addresses T16, BC2T R3E (human).
T16 construct: position 3 library (BC2TR3X), row E
T16 peptide: Ac-PDEKAAVSHWQQ-NH2
In a few lines: as §1

The target of experiment [17] is T17, BC2T K4P (human).
T17 construct: position 4 library, row P
T17 peptide: Ac-PDRPAAVSHWQQ-NH2
The method, boiled down: as §1

Experiment [18] has as its target T18, BC2T K4W (human).
T18 construct: position 4 library, row W
T18 peptide: Ac-PDRWAAVSHWQQ-NH2
The method, boiled down:
as §1

Experiment [19] concerns the target T19, BC2T K4Y (human).
T19 construct: position 4 library, row Y
T19 peptide: Ac-PDRYAAVSHWQQ-NH2
In a few lines:
as §1

The target in experiment [20] is T20, BC2T K4C(Abu) (human, not fully specified (residue 4)).
T20 construct: position 4 library, row C(Abu) / C*
T20 peptide: Ac-PDRCAAVSHWQQ-NH2
In a few lines: as §1

For experiment [21], the target named is T21, BC2T A5E (human).
T21 construct: position 5 library, row E
T21 peptide: Ac-PDRKEAVSHWQQ-NH2
In a few lines:
as §1

B1: BC2 nanobody (BC2-Nb) (VHH)
VHH: QVQLVESGGGLVQPGGSLTLSCTASGFTLDHYDIGWFRQAPGKEREGVSCINNSDDDTYYADSVKGRFTIFMDNAKDTVYLQMNSLKPEDTAIYYCAEARGCKRGRYEYDFWGQGTQVTVSS
notes: immobilised on agarose/sepharose beads in this assay; also called BC2 nanotrap (immobilised form); not shown: C-terminal 6xHis-tag added by pHEN6 vector
Regarding B1, the ratio in experiment [1] turned out to be 1.1; in [2], 0.5; in experiment [3], 0.2; in experiment [4], 0.1; in experiment [5], 1; in [6], 1. Further, the ratio was found to be 0.4 in experiment [7]; 0.5 in experiment [8]; 0.6 in experiment [9]; 0.1 in experiment [10]; 1 in experiment [11]; 0.2 in experiment [12]. The ratio in experiment [13] came out at 0.2; in [14] it was 0.8; in [15], 0.2; in experiment [16], 1; in experiment [17] it was 1; in experiment [18] it was 0.3. The values for the ratio in experiment [19], in experiment [20] and in experiment [21] were 0.2, 0.1 and 0.2, respectively.

B2: BC2-NbR106S (VHH)
VHH: B1 VHH with R106S
notes: immobilised on beads in this assay; not shown: C-terminal 6xHis-tag added by pHEN6 vector
For B2, the ratio was found to be 1 in experiment [1]; 0.8 in experiment [2]; 0.4 in experiment [3]; 0.3 in [4]; 0.8 in [5]; 1 in experiment [6]. The ratio in [7] was 0.5; in experiment [8] it was 0.9; in experiment [9], 0.7; in experiment [10], 0.3; in [11] it was 0.8; in experiment [12], 0.3. The ratio in experiment [13] is 0.2; in experiment [14], 1; in experiment [15], 0.5; in [16], 1; in [17], 1; in [18], 0.8. Further, the values for the ratio in experiment [19], in experiment [20] and in experiment [21] were 0.5, 0.3 and 0.7, respectively.
